From patent US20240398942A1, “USE OF ANTI-CD40 ANTIBODY” (CHIA TAI TIANQING PHARMACEUTICAL GROUP CO., LTD., priority 2021, published 2024)

B1: Chimeric C1H1: C1H1 variable regions (SEQ ID NOs: 19, 23) on human IgG1 heavy chain and human κ light chain constant regions (antibody, V domains shown)
VH: EVKLVESGGGLVKPGASLKLSCAASGFTFSNYGISWVRQTSDKRLEWVASISSGGDNTYYPDNVKGRFTISRENAKNTLYLQMSSLKSEDTALYYCARAGEKAMDYWGQGTSVTVSS
VL: DIVLTQSPVTLSVTPGDSVSLSCRASQTINNNLHWYQQKSHESPRLLIKYASQSISGIPSRFSGSGSGTDFTLSINSVETEDFGIYFCQQFSSWPLTFGAGTKLELK
modifications: human IgG1 and kappa constant regions; VH of mouse and chimeric C1H1 antibodies; VL of mouse and chimeric C1H1 antibodies
B2: Mouse C1H1: mouse anti-CD40 monoclonal antibody, VH SEQ ID NO: 19, VL SEQ ID NO: 23 (antibody, V domains shown)
VH: B1 VH
VL: B1 VL
modifications: VH of mouse and chimeric C1H1 antibodies; VL of mouse and chimeric C1H1 antibodies
B3: huC1H1-V3: humanized C1H1 anti-CD40 antibody, VH SEQ ID NO: 20 X1=A, VL SEQ ID NO: 24 X1=Y X2=Y, human IgG2/κ (antibody, V domains shown)
VH: EVQLVESGGGLVKPGGSLRLSCAASGFTFSNYGISWVRQAPGKGLEWVXSISSGGDNTYYPDNVKGRFTISRDNAKNSLYLQMNSLRAEDTAVYYCARAGEKAMDYWGQGTLVTVSS
VL: EIVLTQSPATLSLSPGERATLSCRASQTINNNLHWYQQKPGQAPRLLIXYASQSISGIPARFSGSGSGTDFTLTISSLEPEDFAVYXCQQFSSWPLTFGGGTKVEIK
modifications: not fully specified; variable positions X1=A; VL X1=Y X2=Y; IgG2/kappa constant; VH of huC1H1-V1 to huC1H1-V4; VARIANT 49 X can be A or S; VL of huC1H1-V1 to huC1H1-V4; VARIANT 49 X can be K or Y; VARIANT 87 X can be F or Y
B4: huC1H1-V4: humanized C1H1 anti-CD40 antibody, VH SEQ ID NO: 20 X1=S, VL SEQ ID NO: 24 X1=Y X2=Y, human IgG2/κ (antibody, V domains shown)
VH: B3 VH
VL: B3 VL
modifications: not fully specified; variable positions X1=S; VL X1=Y X2=Y; IgG2/kappa constant; VH of huC1H1-V1 to huC1H1-V4; VARIANT 49 X can be A or S; VL of huC1H1-V1 to huC1H1-V4; VARIANT 49 X can be K or Y; VARIANT 87 X can be F or Y

Experiments:
[1] = test system: Cynomolgus monkey CD40-his; test: Biacore surface plasmon resonance affinity and binding kinetics; conditions: for Kd: dissociation rate
Excerpt: (§1) The affinity and binding kinetics of the anti-CD40 antibody in the present application were characterized by a Biacore T200 system (GE Healthcare, Pittsburgh, PA, USA).
(§2) Briefly, a goat anti-human IgG (GE Healthcare, Cat. No. BR100839, human antibody capture kit) was covalently linked to a CM5 chip (GE Healthcare, Cat. No. BR100530, carboxymethylated dextran-coated chip) via the primary amine group using a standard amine coupling kit supplied by Biacore (GE Healthcare, Pittsburgh, PA, USA). Unreacted portions on the biosensor surface were blocked with ethanolamine. Then, the anti-CD40 antibody of the present application and two benchmark antibodies (BM1 (dacetuzumab, Genentech Inc., also referred to CD40-BM1, prepared in-house; the heavy and light chain amino acid sequences are set forth in SEQ ID NOs: 40 and 41, respectively) and BM2 (selicrelumab, Abgenix Inc., also referred to CD40-BM2, prepared in-house; the heavy and light chain amino acid sequences are set forth in SEQ ID NOS: 42 and 43, respectively)) at a concentration of 66.67 nM were directed through the chip at a flow rate of 10 μL/min. Then, serially diluted recombinant human CD40-his (Acro biosystems, Cat. No. CD0-H5228, serially 2-fold diluted from 80 nM in HBS-EP^+ buffer (supplied by Biacore)) or cynomolgus monkey CD40-his protein (Acro biosystems, Cat. No. CD0-C52H6, serially 2-fold diluted from 80 nM in HBS-EP^+ buffer (supplied by Biacore)) was directed through the chip at a flow rate of 30 μL/min. The antigen-antibody binding kinetics was tracked for 2 min and the dissociation kinetics was tracked for 10 min. The association and dissociation curves were fitted to a 1:1 Langmuir binding model using BIAcore evaluation software. KD, Ka, and Kd values were determined.

Human CD40-his [2] = biological target: T1, Human CD40-his (Homo sapiens, UniProt P25942); test: as above; conditions: for Kd: dissociation rate
T1 construct: His; purchased Acro biosystems CD0-H5228
T1 sequence (P25942 21-277): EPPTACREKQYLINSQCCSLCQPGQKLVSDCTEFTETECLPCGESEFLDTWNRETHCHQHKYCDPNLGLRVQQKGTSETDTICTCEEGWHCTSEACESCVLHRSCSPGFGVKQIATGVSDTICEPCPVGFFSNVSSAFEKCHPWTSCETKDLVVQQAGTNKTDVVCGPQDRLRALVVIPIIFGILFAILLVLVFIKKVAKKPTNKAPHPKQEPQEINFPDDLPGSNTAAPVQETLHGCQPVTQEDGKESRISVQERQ
Excerpt: as §1, §2

Human CD40-his [3] = biological target: T1, Human CD40-his; test: Octet kinetics of humanized C1H1 antibodies; format: binding; conditions: Table 3, Octet; for Ka: humanized antibodies in cell supernatant, chimeric and benchmark 5 μg/mL
Experimental: After six days of culture in a shake flask, the cell supernatant containing the humanized antibodies huC1H1-V1 to huC1H1-V4 was harvested and the binding affinity of the antibodies to human CD40 was determined on an Octet system (Fortebio, Octet RED 96) according to the following procedures. Briefly, an anti-human IgG Fc capture (AHC) biosensor (from ForteBio) was pre-soaked in a 10 mM glycine solution (pH 1.5) for 3 s, and then soaked in a running buffer (PBST containing 0.5% w/v of BSA) for 3 s. The pre-soaking and soaking procedures were repeated 3 times. Then, the sensor was soaked in the cell supernatant containing the humanized anti-CD40 antibody, chimeric antibody C1H1 dissolved in HBS-EP^+ buffer at a concentration of 5 μg/mL, or the benchmark dissolved in HBS-EP^+ buffer at a concentration of 5 μg/mL for 120 s, and then soaked in the running buffer for 5 min. The new baseline was run in the running buffer for 180 s. The sensor was then soaked for 120 s in human CD40-his protein (Acro biosystems, Cat. No. CD0-H5228) 2-fold serially diluted from 40 nM in the running buffer and for 10 min in the running buffer […]. Finally, the sensor was pre-soaked in a 10 mM glycine solution (pH 1.5) for 3 s, and then soaked in the running buffer for 3 s. The pre-soaking and soaking procedures were repeated 3 times. The association and dissociation curves were fitted to a 1:1 Langmuir binding model using ForteBio Data Analysis 8.1.

human CD40-Fc protein = human CD40-Fc protein (Homo sapiens, UniProt P25942); test: Capture ELISA binding; conditions: in words, FIGS. 1A-1C
Sequence of human CD40-Fc protein (P25942 21-193): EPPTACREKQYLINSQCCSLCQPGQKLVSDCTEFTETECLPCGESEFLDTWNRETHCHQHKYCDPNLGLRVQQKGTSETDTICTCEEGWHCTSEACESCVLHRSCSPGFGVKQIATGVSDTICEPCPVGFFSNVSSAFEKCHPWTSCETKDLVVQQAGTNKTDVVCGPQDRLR
Experimental: For capture ELISA, an affinity-purified goat anti-human IgG (F(ab′)2 fragment-specific, Jackson Immuno Research, Cat. No. 109-005-097) in PBS at a concentration of 2 μg/mL was immobilized on a 96-well plate at 100 μL/well and incubated overnight at 4° C. The plate was washed once with a washing buffer (PBS+0.05% v/v of Tween-20, PBST) and then blocked with 200 μL/well blocking buffer (PBST containing 5% w/v of skim milk) for 2 h at 37° C. The plate was washed 4 times, and the anti-CD40 antibody of the present application, BM1, BM2, and a negative control hIgG (human immunoglobulin for intravenous injection (pH 4), Hualan Biological Engineering Inc.) serially 5-fold diluted from 66.7 nM in a PBST containing 2.5% w/v of skim milk was added at 100 μL per well. The plate was incubated for 40 min at 37° C. and washed 4 times. A biotinylated human CD40-Fc protein (amino acid residues 21-193 of SEQ ID NO: 30 linked to the N terminus of amino acid residues 99-330 of SEQ ID NO: 28, dissolved in PBST containing 2.5% w/v of skim milk at a concentration of 1.15 nM) was added at 100 μL/well to a 96-well plate coated with the anti-CD40 antibody. The plate was incubated at 37° C. for 40 min and washed 4 times. An HRP-labeled streptavidin (diluted at 1:10000 in PBST, Jackson Immuno Research, Cat. No. 016-030-084) was added at 100 μL/well, and the plate was incubated at 37° C. for another 40 min. […]

[4] = Table 2, Biacore, association rate
[5] = Table 5, Biacore, purified antibodies

Row | Molecule | Ka [1, 4] [M⁻¹ s⁻¹] | Kd ([1]; Table 2, Biacore) [s⁻¹] | Kd ([1]; Table 5, Biacore) [s⁻¹] | Ka [1, 5] [M⁻¹ s⁻¹] | Ka (Human CD40-his [2]; [4]) [M⁻¹ s⁻¹] | Kd (Human CD40-his [2]; Table 2, Biacore) [s⁻¹] | Kd (Human CD40-his [2]; Table 5, Biacore) [s⁻¹] | Ka (Human CD40-his [2]; [5]) [M⁻¹ s⁻¹] | Kd (Human CD40-his [3]; dissociation rate) [s⁻¹] | Ka (Human CD40-his [3]) [M⁻¹ s⁻¹] | Binding ability to human CD40 in capture ELISA (human CD40-Fc protein) | Kd (Human CD40-his [3]; read-out: KD) [nM]
1 | B1 | 1.39e+06 | 0.001478 | 0.002147 | 2.54e+06 | 1.82e+06 | 0.001567 | 0.002221 | 2.51e+06 | 0.000929 | 1.47e+06 | higher binding affinity and ability to human CD40 | 
2 | B2 | 1.39e+06 | 0.001184 | 0.000863 | 2.29e+06 | 1.79e+06 | 0.001227 | 0.000897 | 2.1e+06 |  |  |  | 
3 | B3 |  |  |  |  |  |  |  |  | 0.00283 | 523000 |  | 5.41
4 | B4 |  |  |  |  |  |  |  |  | 0.00367 | 424000 |  | 8.66
